According to patent publication US20130052162A1, “BOOSTING IMMUNE DEFENSE BY UPREGULATING CCAAT/ENHANCER BINDING PROTEIN EPSILON” (CEDARS-SINAI MEDICAL CENTER, priority 2010, published 2013):
“Also recorded” adds a separate entry of the source.

What was measured:
[1] = tested on: S. aureus (strains Pig1 and LAC); experiment: Effect of zinc on growth and viability of S. aureus; format: cell-based, Staphylococcus aureus; details: 100 μM Zn2SO4, RPMI 1640 with 10% FBS, 24 h
Experimental: To assess whether zinc, at the concentrations used in the inventors' study, adversely affect the growth and viability of S. aureus (strains Pig1 and LAC), bacteria (˜5×10^5 CFU) were incubated with or without 100 μM zinc (Zn2 SO4) in RPMI 1640 with 10% FBS. The assay was performed in triplicate in 96-well plates for 24 h at 37° C. at which time ten-fold serial dilutions were plated on THA for enumeration of CFU.

S. aureus [2] = experiment: S. aureus survival assay in BMDM treated with IFN-γ; format: cell-based, mouse; details: C/EBPε−/− BMDM, IFN-γ 48 h before infection, 24 h
Experimental: Macrophages were infected with S. aureus at the specified MOI. […] After 30 min, macrophages were washed three times with pre-warmed media to remove extracellular bacteria. Gentamicin (Invitrogen, Carlsbad, Calif., USA) was then added to each well at a final concentration of 400 μg/mL for 1.5 h. At this time, the concentration of gentamicin in the media was reduced to 100 μg/mL for the remainder of the assay. At 24 h post infection, cells were washed three times with PBS, then 100 μl of 0.02% Triton X-100 in water was added to each well and pipetted vigorously 10× to promote macrophage lysis and release intracellular bacteria. Ten-fold serial dilutions of each cell lysate were immediately plated onto THA, and CFU were enumerated following overnight incubation at 37° C. Data are representative of at least two independent experiments performed in triplicate.
BMDM harvested from WT and C/EBPε^−/− mice were seeded at the required density of 5×10^4 cells per well (100 μl) in 96-well tissue culture plates. Macrophages were then activated with IFN-γ (200 U/mL) for 48 h prior to infection. Activated and control non-activated macrophages were infected with S. aureus at the specified MOI. The macrophage survival assay was then performed as described for U937 macrophages.

S. aureus [3] = experiment: Murine skin (s.c.) S. aureus infection with IFN-γ treatment; format: in vivo, mouse; details: C/EBPε−/− mice, 5,000 U i.p. daily
Experimental: S. aureus was pelleted, washed twice and resuspended in PBS (Mediatech, Manassas, Va., USA) mixed 1:1 with sterile Cytodex beads (GE Healthcare, Pasadena, Calif., USA) at the specified inoculum, following an established protocol for generating localized S. aureus and S. pyogenes subcutaneous (s.c.) infection^41,42. One hundred microliters of two separate inocula, as specified, were administered by s.c. injection into the respective two flanks of each mouse. Injections were performed with careful visualization of the needle to assure that they were not intramuscular. Serial dilutions were prepared and plated to confirm the actual inocula used.
Baseline weights of mice were recorded prior to infection and daily thereafter until sacrifice. Lesions were measured with a caliper, daily throughout infection. Lesions were defined by darkened areas of dermonecrosis. The inventors' method to measure lesion size has been previously reported^43. Briefly, skin lesions were quantified by multiplying the length and width of the lesion. Irregularly-shaped lesions were broken down into smaller symmetrical pieces, and each piece was measured by the same method.
Following euthanization of mice on the specified day, infected skin lesion tissue was aseptically excised, and thoroughly homogenized and mixed in 1 mL of PBS as previously shown^43. Ten-fold serial dilutions of the homogenates were plated on THA for CFU determination. The spleen and both kidneys were aseptically removed from each animal and processed in the same way. When required, the appropriate homogenized suspensions (skin lesions) were centrifuged at 15,000 g for 10 min and supernatants stored at −80° C. for subsequent analysis by ELISA.
Mice were infected with S. aureus by s.c. injection as already described. One hundred microliters of two separate specified inocula were injected into the respective two flanks of WT and C/EBPε^−/− mice.
C/EBPε^−/− mice were treated with recombinant murine IFN-γ (Shenandoah Biotechnology, Warwick, Pa., USA) 48 h prior to infection. IFN-γ was administered i.p. (0.5 mL in PBS) at a dose of 5,000 U. Control WT and C/EBPε^−/− mice received equal amounts of PBS. The respective mice continued to receive IFN-γ or PBS every 24 h until they were euthanized.
Mouse weight and lesion size were recorded daily as already described. At day 4 p.i., mice were euthanized, and the CFU from skin lesions, spleen, and kidneys were determined.

Molecule | effect on viability and growth of S. aureus [1] | effect on viability and growth of S. aureus ([1]; listed as Zinc) | S. aureus CFU recovered from / killing by macrophages (S. aureus [2]) | CFU in skin lesions, spleen and kidneys vs PBS (S. aureus [3]) | area of dermonecrosis (S. aureus [3]) | changes in body weight vs PBS-treated WT control (S. aureus [3]) | overall lesion size / area vs PBS (S. aureus [3])
O=S(=O)([O-])[O-].[Zn+2] [zinc] | no effect; also recorded: does not have direct anti-staphylococcal activity | no effect | – | – | – | – | –
IFN-γ: recombinant murine IFN-γ (Shenandoah Biotechnology) (protein, UniProt P01580 23-155, looked up) Interferon gamma: HGTVIESLESLNNYFNSSGIDVEEKSLFLDIWRNWQKDGDMKILQSQIISFYLRLFEVLKDNQAISNNISVIESHLITTFFSNSKAKKDAFMSIAKFEVNNPQVQRQAFNELIRVVHQLLPESSLRKRKRSRC | – | – | reduced the number of S. aureus CFU; also recorded: improved killing of S. aureus | lower numbers of bacteria in the skin lesions; also recorded: significantly lower CFU | dramatically ameliorated | similar | no effect on the overall lesion area; also recorded: no effect on overall lesion size
